Numbered stars: 1 amine (or outer) side, 2 acyl side, 3 side chain; on linkers, the order of the positions; unused ones are H or OH. Square brackets hold non-standard residues; d marks the D form. Side chains are listed from the residue outwards. * marks the point of attachment. C18 diacid = O=C(O)CCCCCCCCCCCCCCCCC(=O)*; γGlu = O=C(O)[C@H](CCC(=O)[*:2])N[*:1]; Aib = CC(C)(N)C(=O)O
T1: human GLP-2 receptor (hGLP2-R) (human, UniProt O95838)
T1 sequence: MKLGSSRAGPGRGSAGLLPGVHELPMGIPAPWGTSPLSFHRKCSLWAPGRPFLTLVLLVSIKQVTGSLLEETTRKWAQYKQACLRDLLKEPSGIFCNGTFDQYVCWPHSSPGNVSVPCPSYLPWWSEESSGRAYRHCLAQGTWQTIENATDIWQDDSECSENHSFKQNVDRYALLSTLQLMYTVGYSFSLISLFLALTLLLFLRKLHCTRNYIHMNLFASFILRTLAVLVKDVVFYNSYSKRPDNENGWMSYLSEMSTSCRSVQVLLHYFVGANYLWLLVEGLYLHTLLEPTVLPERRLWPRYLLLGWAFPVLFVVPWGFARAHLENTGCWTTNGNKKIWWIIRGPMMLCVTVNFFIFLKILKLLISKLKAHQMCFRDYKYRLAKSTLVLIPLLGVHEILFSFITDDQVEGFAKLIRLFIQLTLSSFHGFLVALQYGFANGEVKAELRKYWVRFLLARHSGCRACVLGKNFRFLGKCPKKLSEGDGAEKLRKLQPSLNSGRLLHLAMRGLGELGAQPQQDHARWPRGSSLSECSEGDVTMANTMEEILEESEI


Assays:
[1] = molecular target: human glucagon-like peptide 1 receptor (GLP-1R) (human, UniProt P43220); assay: cell-based or functional assay
[2] = molecular target: T1, human GLP-2 receptor (hGLP2-R); assay: cell-based or functional assay

Binder	EC50 GLP-1 (nM), cAMP AlphaScreen [1]	EC50 GLP-2 (nM), cAMP AlphaScreen [2]
H-H[Aib]EGSFTSELATILDK([γGlu-C18 diacid])QAARDFIAWLIEHKITD-OH (SMILES CC[C@H](C)[C@H](NC(=O)[C@H](Cc1ccccc1)NC(=O)[C@H](CC(=O)O)NC(=O)[C@H](CCCNC(=N)N)NC(=O)[C@H](C)NC(=O)[C@H](C)NC(=O)[C@H](CCC(N)=O)NC(=O)[C@H](CCCCNC(=O)CC[C@H](NC(=O)CCCCCCCCCCCCCCCCC(=O)O)C(=O)O)NC(=O)[C@H](CC(=O)O)NC(=O)[C@H](CC(C)C)NC(=O)[C@@H](NC(=O)[C@@H](NC(=O)[C@H](C)NC(=O)[C@H](CC(C)C)NC(=O)[C@H](CCC(=O)O)NC(=O)[C@H](CO)NC(=O)[C@@H](NC(=O)[C@H](Cc1ccccc1)NC(=O)[C@H](CO)NC(=O)CNC(=O)[C@H](CCC(=O)O)NC(=O)C(C)(C)NC(=O)[C@@H](N)Cc1c[nH]cn1)[C@@H](C)O)[C@@H](C)O)[C@@H](C)CC)C(=O)N[C@@H](C)C(=O)N[C@@H](Cc1c[nH]c2ccccc12)C(=O)N[C@@H](CC(C)C)C(=O)N[C@H](C(=O)N[C@@H](CCC(=O)O)C(=O)N[C@@H](Cc1c[nH]cn1)C(=O)N[C@@H](CCCCN)C(=O)N[C@H](C(=O)N[C@H](C(=O)N[C@@H](CC(=O)O)C(=O)O)[C@@H](C)O)[C@@H](C)CC)[C@@H](C)CC) [Compound 24]	0.21 nM	0.17 nM
H-H[Aib]EGSFTSELATILDK([γGlu-C18 diacid])QAARDFIAWLIYHKITD-OH (SMILES CC[C@H](C)[C@H](NC(=O)[C@H](Cc1ccccc1)NC(=O)[C@H](CC(=O)O)NC(=O)[C@H](CCCNC(=N)N)NC(=O)[C@H](C)NC(=O)[C@H](C)NC(=O)[C@H](CCC(N)=O)NC(=O)[C@H](CCCCNC(=O)CC[C@H](NC(=O)CCCCCCCCCCCCCCCCC(=O)O)C(=O)O)NC(=O)[C@H](CC(=O)O)NC(=O)[C@H](CC(C)C)NC(=O)[C@@H](NC(=O)[C@@H](NC(=O)[C@H](C)NC(=O)[C@H](CC(C)C)NC(=O)[C@H](CCC(=O)O)NC(=O)[C@H](CO)NC(=O)[C@@H](NC(=O)[C@H](Cc1ccccc1)NC(=O)[C@H](CO)NC(=O)CNC(=O)[C@H](CCC(=O)O)NC(=O)C(C)(C)NC(=O)[C@@H](N)Cc1c[nH]cn1)[C@@H](C)O)[C@@H](C)O)[C@@H](C)CC)C(=O)N[C@@H](C)C(=O)N[C@@H](Cc1c[nH]c2ccccc12)C(=O)N[C@@H](CC(C)C)C(=O)N[C@H](C(=O)N[C@@H](Cc1ccc(O)cc1)C(=O)N[C@@H](Cc1c[nH]cn1)C(=O)N[C@@H](CCCCN)C(=O)N[C@H](C(=O)N[C@H](C(=O)N[C@@H](CC(=O)O)C(=O)O)[C@@H](C)O)[C@@H](C)CC)[C@@H](C)CC) [Compound 27]	0.45 nM	1.1 nM
H-H[Aib]EGSFTSELATILDK([γGlu-C18 diacid])QAARDFIAWLIHHKITD-OH (SMILES CC[C@H](C)[C@H](NC(=O)[C@H](Cc1ccccc1)NC(=O)[C@H](CC(=O)O)NC(=O)[C@H](CCCNC(=N)N)NC(=O)[C@H](C)NC(=O)[C@H](C)NC(=O)[C@H](CCC(N)=O)NC(=O)[C@H](CCCCNC(=O)CC[C@H](NC(=O)CCCCCCCCCCCCCCCCC(=O)O)C(=O)O)NC(=O)[C@H](CC(=O)O)NC(=O)[C@H](CC(C)C)NC(=O)[C@@H](NC(=O)[C@@H](NC(=O)[C@H](C)NC(=O)[C@H](CC(C)C)NC(=O)[C@H](CCC(=O)O)NC(=O)[C@H](CO)NC(=O)[C@@H](NC(=O)[C@H](Cc1ccccc1)NC(=O)[C@H](CO)NC(=O)CNC(=O)[C@H](CCC(=O)O)NC(=O)C(C)(C)NC(=O)[C@@H](N)Cc1c[nH]cn1)[C@@H](C)O)[C@@H](C)O)[C@@H](C)CC)C(=O)N[C@@H](C)C(=O)N[C@@H](Cc1c[nH]c2ccccc12)C(=O)N[C@@H](CC(C)C)C(=O)N[C@H](C(=O)N[C@@H](Cc1c[nH]cn1)C(=O)N[C@@H](Cc1c[nH]cn1)C(=O)N[C@@H](CCCCN)C(=O)N[C@H](C(=O)N[C@H](C(=O)N[C@@H](CC(=O)O)C(=O)O)[C@@H](C)O)[C@@H](C)CC)[C@@H](C)CC) [Compound 26]	0.29 nM	0.59 nM
H-H[Aib]EGTFTSELATILDK([γGlu-C18 diacid])QAARDFIAWLIEHKITD-OH (SMILES CC[C@H](C)[C@H](NC(=O)[C@H](Cc1ccccc1)NC(=O)[C@H](CC(=O)O)NC(=O)[C@H](CCCNC(=N)N)NC(=O)[C@H](C)NC(=O)[C@H](C)NC(=O)[C@H](CCC(N)=O)NC(=O)[C@H](CCCCNC(=O)CC[C@H](NC(=O)CCCCCCCCCCCCCCCCC(=O)O)C(=O)O)NC(=O)[C@H](CC(=O)O)NC(=O)[C@H](CC(C)C)NC(=O)[C@@H](NC(=O)[C@@H](NC(=O)[C@H](C)NC(=O)[C@H](CC(C)C)NC(=O)[C@H](CCC(=O)O)NC(=O)[C@H](CO)NC(=O)[C@@H](NC(=O)[C@H](Cc1ccccc1)NC(=O)[C@@H](NC(=O)CNC(=O)[C@H](CCC(=O)O)NC(=O)C(C)(C)NC(=O)[C@@H](N)Cc1c[nH]cn1)[C@@H](C)O)[C@@H](C)O)[C@@H](C)O)[C@@H](C)CC)C(=O)N[C@@H](C)C(=O)N[C@@H](Cc1c[nH]c2ccccc12)C(=O)N[C@@H](CC(C)C)C(=O)N[C@H](C(=O)N[C@@H](CCC(=O)O)C(=O)N[C@@H](Cc1c[nH]cn1)C(=O)N[C@@H](CCCCN)C(=O)N[C@H](C(=O)N[C@H](C(=O)N[C@@H](CC(=O)O)C(=O)O)[C@@H](C)O)[C@@H](C)CC)[C@@H](C)CC) [Compound 25]	0.094 nM	0.33 nM

Results, then the binder that gave them:

EC50 GLP-1 (nM), cAMP AlphaScreen [1]	EC50 GLP-2 (nM), cAMP AlphaScreen [2]	Binder
0.31 nM	0.29 nM	H-H[Aib]EGSFTSELATILDK([γGlu-C18 diacid])QAARDFIAWLIKHKITD-OH (SMILES CC[C@H](C)[C@H](NC(=O)[C@H](Cc1ccccc1)NC(=O)[C@H](CC(=O)O)NC(=O)[C@H](CCCNC(=N)N)NC(=O)[C@H](C)NC(=O)[C@H](C)NC(=O)[C@H](CCC(N)=O)NC(=O)[C@H](CCCCNC(=O)CC[C@H](NC(=O)CCCCCCCCCCCCCCCCC(=O)O)C(=O)O)NC(=O)[C@H](CC(=O)O)NC(=O)[C@H](CC(C)C)NC(=O)[C@@H](NC(=O)[C@@H](NC(=O)[C@H](C)NC(=O)[C@H](CC(C)C)NC(=O)[C@H](CCC(=O)O)NC(=O)[C@H](CO)NC(=O)[C@@H](NC(=O)[C@H](Cc1ccccc1)NC(=O)[C@H](CO)NC(=O)CNC(=O)[C@H](CCC(=O)O)NC(=O)C(C)(C)NC(=O)[C@@H](N)Cc1c[nH]cn1)[C@@H](C)O)[C@@H](C)O)[C@@H](C)CC)C(=O)N[C@@H](C)C(=O)N[C@@H](Cc1c[nH]c2ccccc12)C(=O)N[C@@H](CC(C)C)C(=O)N[C@H](C(=O)N[C@@H](CCCCN)C(=O)N[C@@H](Cc1c[nH]cn1)C(=O)N[C@@H](CCCCN)C(=O)N[C@H](C(=O)N[C@H](C(=O)N[C@@H](CC(=O)O)C(=O)O)[C@@H](C)O)[C@@H](C)CC)[C@@H](C)CC) [Compound 29]
0.31 nM	0.38 nM	H-H[Aib]EGSFTSELATILDK([γGlu-C18 diacid])QAARDFIAWLIRHKITD-OH (SMILES CC[C@H](C)[C@H](NC(=O)[C@H](Cc1ccccc1)NC(=O)[C@H](CC(=O)O)NC(=O)[C@H](CCCNC(=N)N)NC(=O)[C@H](C)NC(=O)[C@H](C)NC(=O)[C@H](CCC(N)=O)NC(=O)[C@H](CCCCNC(=O)CC[C@H](NC(=O)CCCCCCCCCCCCCCCCC(=O)O)C(=O)O)NC(=O)[C@H](CC(=O)O)NC(=O)[C@H](CC(C)C)NC(=O)[C@@H](NC(=O)[C@@H](NC(=O)[C@H](C)NC(=O)[C@H](CC(C)C)NC(=O)[C@H](CCC(=O)O)NC(=O)[C@H](CO)NC(=O)[C@@H](NC(=O)[C@H](Cc1ccccc1)NC(=O)[C@H](CO)NC(=O)CNC(=O)[C@H](CCC(=O)O)NC(=O)C(C)(C)NC(=O)[C@@H](N)Cc1c[nH]cn1)[C@@H](C)O)[C@@H](C)O)[C@@H](C)CC)C(=O)N[C@@H](C)C(=O)N[C@@H](Cc1c[nH]c2ccccc12)C(=O)N[C@@H](CC(C)C)C(=O)N[C@H](C(=O)N[C@@H](CCCNC(=N)N)C(=O)N[C@@H](Cc1c[nH]cn1)C(=O)N[C@@H](CCCCN)C(=O)N[C@H](C(=O)N[C@H](C(=O)N[C@@H](CC(=O)O)C(=O)O)[C@@H](C)O)[C@@H](C)CC)[C@@H](C)CC) [Compound 30]
0.36 nM	0.51 nM	H-H[Aib]EGSFTSELATILDK([γGlu-C18 diacid])QAARDFIAWLILHKITD-OH (SMILES CC[C@H](C)[C@H](NC(=O)[C@H](Cc1ccccc1)NC(=O)[C@H](CC(=O)O)NC(=O)[C@H](CCCNC(=N)N)NC(=O)[C@H](C)NC(=O)[C@H](C)NC(=O)[C@H](CCC(N)=O)NC(=O)[C@H](CCCCNC(=O)CC[C@H](NC(=O)CCCCCCCCCCCCCCCCC(=O)O)C(=O)O)NC(=O)[C@H](CC(=O)O)NC(=O)[C@H](CC(C)C)NC(=O)[C@@H](NC(=O)[C@@H](NC(=O)[C@H](C)NC(=O)[C@H](CC(C)C)NC(=O)[C@H](CCC(=O)O)NC(=O)[C@H](CO)NC(=O)[C@@H](NC(=O)[C@H](Cc1ccccc1)NC(=O)[C@H](CO)NC(=O)CNC(=O)[C@H](CCC(=O)O)NC(=O)C(C)(C)NC(=O)[C@@H](N)Cc1c[nH]cn1)[C@@H](C)O)[C@@H](C)O)[C@@H](C)CC)C(=O)N[C@@H](C)C(=O)N[C@@H](Cc1c[nH]c2ccccc12)C(=O)N[C@@H](CC(C)C)C(=O)N[C@H](C(=O)N[C@@H](CC(C)C)C(=O)N[C@@H](Cc1c[nH]cn1)C(=O)N[C@@H](CCCCN)C(=O)N[C@H](C(=O)N[C@H](C(=O)N[C@@H](CC(=O)O)C(=O)O)[C@@H](C)O)[C@@H](C)CC)[C@@H](C)CC) [Compound 28]
